Target: the molecule itself
Assay: crystal structure

B1: N-terminal six-His-tagged FosB from Staphylococcus aureus with a bacillithiol-Cys9 disulfide bond (enzyme)
chain: not shown
modifications: Cys9 in a disulfide bond with bacillithiol (BS-Cys9)
For B1, the “stoichiometry N” value was 2.
